{"source": "patent EP4428150A1", "about": "(Peptide Logic LLC, dated 2024)", "binders": {"B1": {"name": "Antibody 37 (antibody, human IgG4 S228P, kappa, V domains shown)", "VH": "QVQLVQSGAEVKKPGASVKVSCKASGYTFSNFWIEWVRQAPGQRLEWMGEIFPGTGSTYYTEKFKVRVTITRDTSASTAYMELSSLRSEDTAVYYCARRGYSDSWFAHWGQGTLVTVSS", "VL": "DIQMTQSPSSLSASVGDRVTITCRASESVDMYGKSFMHWYQQKPGKAPKLLIYRASTLESGVPSRFSGSGSGTDFTLTISSLQPEDFATYYCQQNVEAPLTFGGGTKVEIKR", "notes": "Humanized IgG4(S228P), IGHV1-3 heavy and IGKV1-39 light frameworks; also called humanized anti-hPRL antibody"}}, "key": {"[1]": {"target": "T1, human prolactin (human, UniProt P01236 29-227)", "T1 sequence (looked up)": "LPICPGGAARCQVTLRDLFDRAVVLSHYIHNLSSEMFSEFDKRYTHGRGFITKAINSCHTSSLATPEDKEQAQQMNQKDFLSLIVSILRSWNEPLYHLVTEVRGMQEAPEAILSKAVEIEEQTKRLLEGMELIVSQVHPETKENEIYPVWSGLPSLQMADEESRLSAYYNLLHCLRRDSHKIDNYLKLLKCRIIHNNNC", "experiment": "cell-based or functional assay"}, "[2]": {"target": "human growth hormone (human, UniProt P01241 27-217)", "sequence (P01241 27-217 limits assumed)": "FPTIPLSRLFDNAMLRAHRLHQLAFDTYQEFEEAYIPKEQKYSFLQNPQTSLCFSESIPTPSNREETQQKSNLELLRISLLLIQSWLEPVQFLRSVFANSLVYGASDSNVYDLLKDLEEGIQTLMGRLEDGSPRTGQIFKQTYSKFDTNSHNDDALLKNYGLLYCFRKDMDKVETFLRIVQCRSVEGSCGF", "experiment": "cell-based or functional assay"}, "[3]": {"target": "T2, cynomolgus monkey PRL (cynomolgus monkey, UniProt A0A2K5X975 30-228)", "T2 sequence": "T1 sequence (looked up) with A9V, R43Q, K53R, A64P, Q106E, S151T", "experiment": "cell-based or functional assay"}, "[4]": {"target": "human placental lactogen (human, UniProt P0DML2 27-217)", "sequence (P0DML2 27-217 limits assumed)": "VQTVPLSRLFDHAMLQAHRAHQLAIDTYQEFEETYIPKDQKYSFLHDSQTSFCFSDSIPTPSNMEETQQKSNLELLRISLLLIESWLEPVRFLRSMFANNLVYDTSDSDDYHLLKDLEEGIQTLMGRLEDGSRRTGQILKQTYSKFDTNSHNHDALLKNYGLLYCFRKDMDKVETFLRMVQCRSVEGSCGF", "experiment": "cell-based or functional assay"}, "[5]": {"target": "T3, mouse PRL (mouse, UniProt P06879 30-226)", "T3 sequence (looked up)": "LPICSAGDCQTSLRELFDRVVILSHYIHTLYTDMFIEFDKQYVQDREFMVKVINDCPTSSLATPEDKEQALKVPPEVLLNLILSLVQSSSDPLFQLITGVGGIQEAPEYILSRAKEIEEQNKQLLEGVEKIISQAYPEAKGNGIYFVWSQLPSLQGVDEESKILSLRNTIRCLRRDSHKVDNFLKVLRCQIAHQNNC", "experiment": "cell-based or functional assay"}, "[6]": {"target": "T1, human prolactin", "experiment": "bio-layer interferometry (Octet-RED96), antibody captured on anti-human IgG Fc sensors, 1:1 global fit"}, "[7]": {"target": "T3, mouse PRL", "experiment": "bio-layer interferometry (Octet-RED96), antibody captured on anti-human IgG Fc sensors; kinetics not determined"}, "[8]": {"target": "T2, cynomolgus monkey PRL", "experiment": "bio-layer interferometry (Octet-RED96), antibody captured on anti-human IgG Fc sensors, 1:1 fit"}}, "note": "Numbering of substitutions follows the chain as printed. Names may count otherwise."}
{"binder": "B1", "values": [{"measurement": "IC50 in the in vitro CHO-hPRLR phospho-STAT5 cell signaling assay", "setting": "[1]", "value": 3.1, "unit": "nM"}, {"measurement": "IC50 in the in vitro CHO-hPRLR phospho-STAT5 cell signaling assay", "setting": "[2]", "value": "> 150", "unit": "nM"}, {"measurement": "IC50 in the in vitro CHO-hPRLR phospho-STAT5 cell signaling assay", "setting": "[3]", "value": 4.7, "unit": "nM"}, {"measurement": "IC50 in the in vitro CHO-hPRLR phospho-STAT5 cell signaling assay", "setting": "[4]", "value": "> 3620", "unit": "nM"}, {"measurement": "IC50 in the in vitro CHO-hPRLR phospho-STAT5 cell signaling assay", "setting": "[5]", "value": "> 150", "unit": "nM"}, {"measurement": "Kd", "setting": "[6]", "value": 0.621, "unit": "nM"}, {"measurement": "koff", "setting": "[6]", "value": 0.000215, "unit": "s⁻¹"}, {"measurement": "kon", "setting": "[6]", "value": 347000, "unit": "M⁻¹ s⁻¹"}, {"measurement": "Kd", "setting": "[7]", "value": "> 100", "unit": "nM"}, {"measurement": "Kd", "setting": "[8]", "value": 0.565, "unit": "nM"}, {"measurement": "koff", "setting": "[8]", "value": 0.000307, "unit": "s⁻¹"}, {"measurement": "kon", "setting": "[8]", "value": 543000, "unit": "M⁻¹ s⁻¹"}]}
